From patent US20190352409A1 (AUTOLUS, published 2019)

T1: Transmembrane activator and calcium modulator and cyclophilin ligand (CAML) interactor (TACI), on cells (human, UniProt O14836 1-293)
T1 construct: whole, on cells; also called TNFRSF13B; SupT1 TACI cells
T1 sequence (looked up): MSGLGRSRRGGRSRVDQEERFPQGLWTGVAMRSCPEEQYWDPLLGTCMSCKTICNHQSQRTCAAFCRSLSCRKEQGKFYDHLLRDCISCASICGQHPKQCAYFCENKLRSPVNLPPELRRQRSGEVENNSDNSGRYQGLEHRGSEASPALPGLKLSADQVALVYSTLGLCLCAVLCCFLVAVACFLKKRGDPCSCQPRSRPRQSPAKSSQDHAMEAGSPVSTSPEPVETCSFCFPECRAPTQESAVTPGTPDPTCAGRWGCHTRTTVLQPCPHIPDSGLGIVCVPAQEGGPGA

T2: Transmembrane activator and calcium modulator and cyclophilin ligand (CAML) interactor (TACI), on cells (human, UniProt O14836 1-293)
T2 chain: T1 sequence (looked up)

B1: 4B11 anti-TACI monoclonal antibody (mouse hybridoma) (antibody, V domains shown)
VH: EVQLQQSVAELVRPGASVKLSCTASGFNIKNTYIHWVKQRPEQGLEWIGKIDPANGNSEYAPKFQGKATITADTSSNTAYLQLSSLTSEDTTIYYCTSGYGAYWGQGTTLTVSS
VL: DIVLSQSPSSLAVSIGEKVTLSCKSSQSLLYSSNQKNYLAWFQQKPGQSLKLLIYWASTREFGVPDRFTGSGSGTDFTLTISSVKTEDLAVYYCQQYYTWTFGGGTKLEIK
notes: Tested as hybridoma supernatant from BalBC mice
B2: 1G6 anti-TACI monoclonal antibody (mouse hybridoma) (antibody, V domains shown)
VH: QVQLKQSGPGLVAPSQSLSITCTVSGFSLTSYGVDWVRQSPGKGLEWLGIIWGGGRTNYNSAFKSRLSISKDNSKSQVFLKMNSLQTDDTAMYYCASGDRAADYWGQGTSVTVSS
VL: DIVMTQSQKFMSTTVGDRVTITCKASQNVGTAVAWYQQKPGQSPKLLIYSASNRYTGVPVRFTGSGSGTDFTLTINNMQSEDLADYFCQQYSSYPLTFGAGTKLELK
notes: as for B1
B3: 2G2 anti-TACI monoclonal antibody (mouse hybridoma) (antibody, V domains shown)
VH: QVTLKESGPGMLQPSQTLSLTCSFSGFSLSTFGMGVGWIRQPSGKGLEWLAHIWWDDAQYSNPALRSRLTISKDTSKNQVFLKIANVDTADTATYYCSRIHSYYSYDEGFAYWGQGTLVTVSS
VL: DIVMTQSQKFMSTTVGDRVSITCKASQNVGTAVAWYQQKPGQSPKLLIYSASNRYTGVPDRFTGSGSGTDFTLTISNMQSEDLADYFCQQYSSYRTFGGGTKLEIKR
notes: as for B1
B4: 2H6 anti-TACI monoclonal antibody (mouse hybridoma) (antibody, V domains shown)
VH: EVQLQQSGPELVKPGASVRMSCKASGYTFTNYVMHWVKQKPGQGLEWIGYINPSNDDTKYTEKFKGKATLTSDKSSSTAYMELSSLTSEDSAVYYCARGTHGDYYALDYWGQGTSVTVSS
VL: DIVLTQSPASLAVSLGQSVTISCRASESVEYYGTSLMQWYQQKPGQAPKLLIYGASNVESGVPARFSGSGSGTDFSLNIHPVEEDDIAMYFCQQSRKVPWTFGGGTKLEI

Target: T1, Transmembrane activator and calcium …
Assay: flow cytometry on TACI positive SupT1 cells (FIG. 6b)
Description: b) Confirmatory analysis of TACI binding by flow cytometry. Hybridoma lines were screened on TACI positive and BCMA positive SupT1 cells. The four hybridomas with the highest reactivity to SupT1 TACI cells were chosen for subcloning and characterisation
Five mice with TACI positive sera were selected for a final immunization boost before the spleens were harvested for B cell isolation and hybridoma production. Hybridoma fusions of 10×96-well plates with lymphocytes from the selected mice were performed. Hybridoma supernatants were screened for reactive anti-TACI antibodies by ELISA screening against recombinant human TACI purified protein (Peprotech, 310-17), representative data is shown in FIG. 6a. ELISA positive hybridoma supernatants were tested by flow cytometry, on SupT1 cells engineered to overexpress TACI. As a control BCMA expressing SupT1 cells were used, FIG. 6b. Candidate hybridomas were expanded.

binding result | Binder
binds | B1
binds | B2
binds | B3

Target: T2, Transmembrane activator and calcium …
Assay: Biacore SPR

Kd | Binder
379 pM | B1
210 pM | B2
924 pM | B3
51 pM | B4
